In US20240383974A1 (BETTA PHARMACEUTICALS, published 2024):
Like-named read-outs stand apart in the source and are kept apart here. Each block holds one binder with its values, some of them ahead of it.

Key:
[1] = target: T1, GARP-TGF-β complex (293-GARP/TGFβ stably transfected cells) (UniProt Q14392 20-662; P01137 30-390); assay: FACS on 293-GARP/TGFβ cells
T1 construct: whole, on cells; Complex of GARP and (latent) TGF-β on the cell surface; also called 293-GARP/TGFβ cell; 293F-GAPR/TGFβ/αvβ6 cells
T1 sequence (Q14392 20-662, chain 1 of 2): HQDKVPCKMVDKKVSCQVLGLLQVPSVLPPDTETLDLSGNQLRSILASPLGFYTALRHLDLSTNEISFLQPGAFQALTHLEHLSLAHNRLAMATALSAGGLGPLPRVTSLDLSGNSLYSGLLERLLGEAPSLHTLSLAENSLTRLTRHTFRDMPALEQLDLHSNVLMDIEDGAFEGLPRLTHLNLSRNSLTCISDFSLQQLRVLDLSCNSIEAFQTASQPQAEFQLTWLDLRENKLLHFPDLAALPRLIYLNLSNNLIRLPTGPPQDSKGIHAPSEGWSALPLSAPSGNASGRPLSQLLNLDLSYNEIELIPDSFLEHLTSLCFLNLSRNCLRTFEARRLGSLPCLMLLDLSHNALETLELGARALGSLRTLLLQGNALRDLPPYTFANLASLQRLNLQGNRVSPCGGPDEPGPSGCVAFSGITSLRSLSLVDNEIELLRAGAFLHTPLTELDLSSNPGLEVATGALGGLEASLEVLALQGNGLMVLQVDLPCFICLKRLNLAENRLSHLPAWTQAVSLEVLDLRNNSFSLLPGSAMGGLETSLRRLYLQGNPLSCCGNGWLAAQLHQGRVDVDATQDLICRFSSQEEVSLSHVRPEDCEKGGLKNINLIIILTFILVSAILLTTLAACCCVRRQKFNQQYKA
T1 sequence (P01137 30-390, chain 2 of 2): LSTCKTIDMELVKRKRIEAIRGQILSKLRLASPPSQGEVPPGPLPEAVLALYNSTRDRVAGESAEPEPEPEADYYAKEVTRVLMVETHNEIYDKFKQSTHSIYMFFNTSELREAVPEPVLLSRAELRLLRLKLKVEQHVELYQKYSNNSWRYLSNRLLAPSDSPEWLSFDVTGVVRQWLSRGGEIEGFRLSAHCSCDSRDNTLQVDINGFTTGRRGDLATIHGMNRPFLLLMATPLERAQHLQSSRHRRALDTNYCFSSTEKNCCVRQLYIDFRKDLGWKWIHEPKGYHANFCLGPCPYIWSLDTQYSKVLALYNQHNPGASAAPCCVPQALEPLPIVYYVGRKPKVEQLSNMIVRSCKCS

[2] = target: T2, human transforming growth factor β1 (human, UniProt P01137 279-390); assay: ELISA, plate-coated hTGF-β1
T2 construct: Coated on the ELISA plate at 100 ng/well; also called hTGF-β1; TGF-β
T2 sequence (P01137 279-390 limits assumed): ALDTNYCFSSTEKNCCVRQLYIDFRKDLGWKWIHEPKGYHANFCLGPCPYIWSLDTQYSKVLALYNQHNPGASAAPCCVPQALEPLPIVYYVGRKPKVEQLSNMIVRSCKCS

[3] = target: T1, GARP-TGF-β complex (293-GARP/TGFβ …); assay: FACS on 293-GARP/TGFβ cells; remark: listed apart in the source
[4] = target: T2, human transforming growth factor β1; assay: ELISA, plate-coated hTGF-β1; remark: listed apart in the source
human PD-L1 [5] = target: T3, human PD-L1 (human, UniProt Q9NZQ7 19-290); assay: FACS on MC38-hPD-L1 cells
T3 construct: whole, on cells; also called hPD-L1; PD-L1 antigen on MDA-MB-231 cells
T3 sequence (Q9NZQ7 19-290): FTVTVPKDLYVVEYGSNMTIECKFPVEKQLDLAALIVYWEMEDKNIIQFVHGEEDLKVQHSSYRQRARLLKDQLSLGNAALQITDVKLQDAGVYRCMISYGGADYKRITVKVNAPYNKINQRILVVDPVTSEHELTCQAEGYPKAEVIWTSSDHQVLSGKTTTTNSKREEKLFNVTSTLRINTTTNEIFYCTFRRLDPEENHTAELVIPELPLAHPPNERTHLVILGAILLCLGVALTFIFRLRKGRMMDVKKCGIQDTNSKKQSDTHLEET

human PD-L1 [6] = target: T3, human PD-L1; assay: FACS on PD-L1-expressing cells, similar method
PD-L1-Biotin = PD-L1-Biotin (UniProt Q9NZQ7 19-238, limits assumed, biotin label (site not stated)); assay: competitive FACS: blocks PD-L1-Biotin binding to 293T-PD-1 cells
Chain of PD-L1-Biotin (Q9NZQ7 19-238 limits assumed): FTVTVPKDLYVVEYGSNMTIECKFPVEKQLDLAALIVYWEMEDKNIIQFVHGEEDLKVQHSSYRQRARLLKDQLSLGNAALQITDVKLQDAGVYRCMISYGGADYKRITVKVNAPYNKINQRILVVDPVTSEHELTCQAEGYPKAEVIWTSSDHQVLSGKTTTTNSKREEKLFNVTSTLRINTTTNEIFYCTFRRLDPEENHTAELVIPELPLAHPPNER

human PD-L1 [7] = target: T3, human PD-L1; assay: competitive FACS: blocks human-CD80-mFc binding to 293T-PD-L1 cells
human PD-L1 [8] = target: T3, human PD-L1; assay: FACS on MDA-MB-231 cells (endogenous PD-L1)
[9] = target: T1, GARP-TGF-β complex (293-GARP/TGFβ …); assay: FACS on 293-GARP/TGFβ cells; remark: listed apart in the source

EC50 [1]: > 5 nM
EC50 [2]: < 1 nM
B1: antibody m109 (antibody, V domains shown)
VH: EVKLVESGGGLVQPGGSLKLSCATSGFTFSDYYMYWVRQTPEKRLEWVAYISNGGGRTYYPDTVKGRFTISRDNAKNTLYLQMSRLKSEDRAIYYCARQKTNYGNYEEDYYAMGYWGQGTSVTVSS
VL: DIVLTQSPASLAVSLGQRATISCRASKSVSTSGYSYIHWYQQKPGQPPKLLIYLASNLESGVPARFSGSGSGTDFTLNIHPVEEEDAATYYCQHSRELPLTFGAGTKLDLK

EC50 [3]: > 5 nM
EC50 [4]: 0.73 nM
B2: antibody m109-hu (antibody, V domains shown)
VH: EVQLVESGGGLVQPGGSLRLSCATSGFTFSDYYMYWVRQTPEKRLEWVAYISNGGGRTYYPDTVKGRFTISRDNAKNSLYLQMSRLRAEDTAVYYCARQKTNYGNYEEDYYAMGYWGQGTSVTVSS
VL: DIVLTQSPASLAVSLGQRATITCRASKSVSTSGYSYIHWYQQKPGQPPKLLIYLASNLESGVPARFSGSGSGTDFTLTINPVEEEDAATYYCQHSRELPLTFGAGTKLEIK
notes: Humanized m109

EC50 [3]: 2.5 nM
EC50 [4]: < 2 nM
B3: antibody m202-hu (antibody, V domains shown)
VH: QVQLVQSGAEVKKPGASVKVSCKASGYTFTSYWMHWVKQAPGQGLEWIGNINPSNGDTNYNEKFKSKATLTVDKSTSTAYMELRSLRSDDTAVYYCARATYGSYGYFDVWGQGTLVTVSS
VL: DIVLTQSPDSLAVSLGERATINCRASESVTIIGTNLIQWFQQKPGQPPKLLIYHASNLETGVPDRFSGSGSRTDFTLTISSLQAEDVAVYYCLQSRQIPRTFGGGTKVEIK
notes: Humanized m202
binding result (human PD-L1 [5]): no binding (tested: initial concentration 200 nM)

EC50 (human PD-L1 [6]): 0.18 nM
IC50 (PD-L1-Biotin): 2.6 nM
IC50 (human PD-L1 [7]): ~1.5 nM
B4: antibody D1hu (VHH)
VHH: EVQLVESGGGLVQPGGSLRLSCTASGRDFLTYGMGWFRQAPGKELEFVASINWSGSMTYYADSVKGRFTISRDNAKNTVYLQMNSLRAEDTAVYICAARRGAVTYASSNEYEHWGQGTQVTVSS
notes: Humanized anti-PD-L1 nanobody

EC50 (human PD-L1 [8]): 0.042 nM
IC50 (PD-L1-Biotin): 1.68 nM
IC50 (human PD-L1 [7]): 4.15 nM
B5: antibody C (VHH)
VHH: EVQLVESGGGSVQTGGSLRLSCVASGRDFLTYGMGWFRQAPGKEREFVASINWSGSMTYYADSVKGRFTISRDNAKNTVYLQMNSLKPGDTAVYICAARRGAVTYASSNEYEHWGQGTQVTVSS
notes: Anti-PD-L1 alpaca nanobody

EC50 (human PD-L1 [8]): 0.039 nM
IC50 (PD-L1-Biotin): 2.1 nM
IC50 (human PD-L1 [7]): 4.76 nM
B6: antibody D (VHH)
VHH: EVQLVESGGGLVQAGDSLRLSCTASGRDFLTYGMGWFRQAPGKEREFVASINWSGSMTYYADSVKGRFTISRDNAKNTVYLQMNSLKPGDTAVYICAARRGAVTYASSNEYEHWGQGTQVTVSS
notes: Anti-PD-L1 alpaca nanobody

IC50 (PD-L1-Biotin): 1 nM
IC50 (human PD-L1 [7]): ~3.2 nM
B7: antibody Chu (VHH)
VHH: EVQLVESGGGLVQPGGSLRLSCAASGRDFLTYGMGWFRQAPGKGREFVASINWSGSMTYYADSVKGRFTISRDNAKNTVYLQMNSLKAEDTAVYICAARRGAVTYASSNEYEHWGQGTLVTVSS
notes: Humanized anti-PD-L1 nanobody

EC50 (human PD-L1 [6]): 0.29 nM
IC50 (PD-L1-Biotin): 12 nM
B8: antibody D2hu (VHH)
VHH: EVQLVESGGGLVQPGGSLRLSCAASGRDFLTYGMGWFRQAPGKGLEFVASINWSGSMTYYADSVKGRFTISRDNAKNSVYLQMNSLRAEDTAVYICAARRGAVTYASSNEYEHWGQGTQVTVSS
notes: Humanized anti-PD-L1 nanobody

EC50 [9]: 1.6 nM
B9: b202-L-Bhu (bispecific antibody)
heavy: not shown
light: DIVLTQSPDSLAVSLGERATINCRASESVTIIGTNLIQWFQQKPGQPPKLLIYHASNLETGVPDRFSGSGSRTDFTLTISSLQAEDVAVYYCLQSRQIPRTFGGGTKVEIKRTVAAPSVFIFPPSDEQLKSGTASVVCLLNNFYPREAKVQWKVDNALQSGNSQESVTEQDSKDSTYSLSSTLTLSKADYEKHKVYACEVTHQGLSSPVTKSFNRGECGGGGSGGGGSGGGGSGGGGSQVQLVESGGGVVQPGGSLRLSCAASGFTFSSYAMRWVRQAPGKGLEWVAGINTGSEIVVYANSVRGRFTISRDNSRDTLYLQMNSLRAEDTAVYYCATGLVSAEHDGIWGQGTQVTVSS

EC50 (human PD-L1 [8]): 0.089 nM
IC50 (PD-L1-Biotin): 1.02 nM
IC50 (human PD-L1 [7]): 3.95 nM
B10: antibody A (VHH)
VHH: QVQLVESGGGLVQAGGSLRLSCAASGRSFSSSGMGWFRQAPGKDREFVATINSSGGDTYYRDSVEGRFTTSRDNAKNTMSLQMNDLKPEDTAVYYCAAKEGGGPSSIPAIYDYWGQGTQVTVSS
notes: Anti-PD-L1 alpaca nanobody

EC50 (human PD-L1 [6]): 0.051 nM
IC50 (PD-L1-Biotin): 4 nM
IC50 (human PD-L1 [7]): ~1.8 nM
B11: antibody Ahu (VHH)
VHH: QVQLVESGGGVVQPGGSLRLSCAASGRSFSSSGMGWFRQAPGKGREFVATINSSGGDTYYRDSVEGRFTTSRDNSKNTMYLQMNSLRAEDTAVYYCAAKEGGGPSSIPAIYDYWGQGTLVTVSS
notes: Humanized anti-PD-L1 nanobody

EC50 (human PD-L1 [8]): 0.053 nM
IC50 (PD-L1-Biotin): 2.54 nM
IC50 (human PD-L1 [7]): 2.98 nM
B12: antibody E (VHH)
VHH: QVQLVESGGGLVQAGGSLRLSCAASGRSFSSSGMGWFRQAPGKDREFVATINSSGGDTYYADSVEGRFTTSRDNAKNTMSLQMNDLKPEDTAVYYCAAKEGGGPSSIPAIFDYWGQGTQVTVSS
notes: Anti-PD-L1 alpaca nanobody

EC50 [3]: 4 nM
EC50 [4]: < 2 nM
B13: antibody m301-hu (antibody, V domains shown)
VH: QVQLQESGPGLVKPSGTLSLTCAVSGFSLTTYGVTWVRQPPGKGLEWIGLIWGDGTTDYHSTFISRLTISKDKSKNQVSLKLSSVTAADTAVYYCASYYFAMHYWGQGTLVTVSS
VL: DIVMTQSPDSLAVSLGERATINCKSSQSLLNSRTQKNYLAWYQQKPGQSPKLLIYWASTRESGVPDRFSGSGSGTDFTLTISSLQAEDVAVYYCKQSYNLWTFGGGTKVEIK
notes: Humanized m301
binding result (human PD-L1 [5]): no binding (tested: initial concentration 200 nM)

EC50 [1]: 2.5 nM
EC50 [2]: < 1 nM
B14: antibody m301 (antibody, V domains shown)
VH: QVQLKESGPGLVAPSQSLSITCTVSGFSLTTYGVTWVRQPPGKGLQWLGLIWGDGTTDYHSTFISRLSISKDKSKNQVFFKLNSLQTDDTATYYCASYYFAMHYWGQGTSVTVSS
VL: DIVMSQSPSSLAVSAGEKVTMNCKSSQSLLNSRTQKNYLAWYQQKPGQSPKLLIYWASTRESGVPDRFTGSGSGTDFTLTIISVQAEDLAVYYCKQSYNLWTFGGGTKLEIK

EC50 [9]: 1.5 nM
B15: b202-H-Bhu-D2hu (bispecific antibody)
heavy: not shown
light: DIVLTQSPDSLAVSLGERATINCRASESVTIIGTNLIQWFQQKPGQPPKLLIYHASNLETGVPDRFSGSGSRTDFTLTISSLQAEDVAVYYCLQSRQIPRTFGGGTKVEIKRTVAAPSVFIFPPSDEQLKSGTASVVCLLNNFYPREAKVQWKVDNALQSGNSQESVTEQDSKDSTYSLSSTLTLSKADYEKHKVYACEVTHQGLSSPVTKSFNRGEC
notes: Tandem architecture and constant regions as noted for b301-H-Bhu-D2hu

EC50 [9]: 4.4 nM
B16: b305-H-Bhu-D2hu (bispecific antibody)
heavy: not shown
light: DIQMTQSPSSLSASVGDRVTITCRASQEISGYLSWLQQKPGGAPKRLIYAASTLDSGVPSRFSGSRSGTDYTLTISSLQPEDFATYYCLQYASYPTCTFGGGTKVEIKRTVAAPSVFIFPPSDEQLKSGTASVVCLLNNFYPREAKVQWKVDNALQSGNSQESVTEQDSKDSTYSLSSTLTLSKADYEKHKVYACEVTHQGLSSPVTKSFNRGEC
notes: as for B15

EC50 [1]: 2.7 nM
EC50 [2]: < 1 nM
B17: antibody m202 (antibody, V domains shown)
VH: QVQLQQPGTELVKPGASVKLSCKASGYTFTSYWMHWVKQRPGQGLEWIGNINPSNGDTNYNEKFKSKATLTVDKSSSTAYMQLSSLTSDDSAVYYCARATYGSYGYFDVWGTGTAVTVSS
VL: DIVLTQSPASLAMSLGKRATISCRASESVTIIGTNLIQWFQQKPGQPPKLLIYHASNLETGVPARFSGSGSRTDFTLTIDPVEEDDVAIYYCLQSRQIPRTFGGGTKLEIK

EC50 [3]: 7.5 nM
EC50 [4]: 7.5 nM
B18: antibody m107-hu (antibody, V domains shown)
VH: QVQLVQSGAEVKRPGASVKVSCKASGYTFSAYTIHWVKQRPGQGLEWIGYINPSNDFAKYIQKFKDKVTITADKSTSTAYMELNSLRSEDTAVYYCARVDYYGGSYRWYLDVWGQGTTVTVSS
VL: DIVLTQSPATLSLSPGERATLSCRASQSISNNLHWYQQKPGEAPRLLIKYTSQSISGIPARFSGSGSGTDFTLTISSLEPEDFAVYFCQQSNSWPIFTFGQGTKLEIK
notes: Humanized m107

EC50 (human PD-L1 [8]): 0.031 nM
IC50 (PD-L1-Biotin): 2.08 nM
IC50 (human PD-L1 [7]): 3.35 nM
B19: antibody B (VHH)
VHH: QVQLVESGGGLVQPGGSLSLSCVASGFTFSSYAMRWVRQAPGKEPEWVAGINTGSEIVVYANSVRGRFAISRDNARDTLFLQMNSLKPEDTAVYYCATGLVSAEHDGIWGQGTQVTVSS
notes: Anti-PD-L1 alpaca nanobody

EC50 (human PD-L1 [6]): 0.18 nM
IC50 (PD-L1-Biotin): 3.4 nM
IC50 (human PD-L1 [7]): ~1.7 nM
B20: antibody Bhu (VHH)
VHH: QVQLVESGGGVVQPGGSLRLSCAASGFTFSSYAMRWVRQAPGKGLEWVAGINTGSEIVVYANSVRGRFTISRDNSRDTLYLQMNSLRAEDTAVYYCATGLVSAEHDGIWGQGTQVTVSS
notes: Humanized anti-PD-L1 nanobody
